pKd: −log10 of the molar value.
Experiments:
[1] = biological target: HGF receptor (c-met) on human cell lines of the central nervous system (T98G glioblastoma, GOTO and SCCH-26 neuroblastoma) (human) (UniProt P08581); assay: ^125I-HGF saturation binding on GOTO cells, Scatchard analysis
[2] = biological target: HGF receptor (c-met) on human cell lines of the central nervous system (T98G glioblastoma, GOTO and SCCH-26 neuroblastoma) (human) (UniProt P08581); assay: ^125I-HGF binding on T98G, GOTO and SCCH-26 cells, Scatchard analysis (range told of the three cell lines)
[3] = biological target: HGF receptor (c-met) on human cell lines of the central nervous system (T98G glioblastoma, GOTO and SCCH-26 neuroblastoma) (human) (UniProt P08581); assay: ^125I-HGF saturation binding on SCCH-26 cells, Scatchard analysis
[4] = biological target: HGF receptor (c-met) on human cell lines of the central nervous system (T98G glioblastoma, GOTO and SCCH-26 neuroblastoma) (human) (UniProt P08581); assay: ^125I-HGF saturation binding on T98G cells, Scatchard analysis

Sequence of Human recombinant HGF (hepatocyte growth factor), radioiodinated (^125I-HGF) (P14210 32-728 limits assumed): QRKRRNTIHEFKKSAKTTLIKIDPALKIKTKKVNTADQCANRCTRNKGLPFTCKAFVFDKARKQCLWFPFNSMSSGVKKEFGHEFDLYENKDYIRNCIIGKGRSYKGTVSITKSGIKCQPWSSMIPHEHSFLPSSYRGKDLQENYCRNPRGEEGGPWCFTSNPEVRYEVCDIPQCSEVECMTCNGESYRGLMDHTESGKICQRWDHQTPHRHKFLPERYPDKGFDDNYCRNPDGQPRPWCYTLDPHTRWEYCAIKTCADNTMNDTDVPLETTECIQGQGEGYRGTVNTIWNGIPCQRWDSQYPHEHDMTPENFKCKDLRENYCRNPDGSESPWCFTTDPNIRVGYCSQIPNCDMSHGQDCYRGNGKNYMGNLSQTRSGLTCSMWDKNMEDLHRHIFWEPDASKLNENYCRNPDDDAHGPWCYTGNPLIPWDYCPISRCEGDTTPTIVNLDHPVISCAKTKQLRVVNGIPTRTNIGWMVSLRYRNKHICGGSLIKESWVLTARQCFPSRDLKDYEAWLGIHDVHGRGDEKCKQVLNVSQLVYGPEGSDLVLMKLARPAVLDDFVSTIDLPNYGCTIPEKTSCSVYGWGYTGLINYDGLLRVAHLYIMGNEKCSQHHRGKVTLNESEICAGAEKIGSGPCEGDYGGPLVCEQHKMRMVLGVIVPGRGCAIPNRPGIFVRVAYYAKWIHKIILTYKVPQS

**Q.** What does the source list for “Human recombinant HGF (hepatocyte growth factor), radioiodinated (^125I-HGF) (from UniProt P14210 32-728) (ligand)”?
**A.** B max (sites/cell) [1]: 120 sites/cell; pKd [1]: 10.52; pKd [2]: 10.40 to 10.52; B max (sites/cell) [3]: 60 sites/cell; pKd [3]: 10.70; B max (sites/cell) [4]: 540 sites/cell; pKd [4]: 10.51

From patent US6699837
